From US20240270857A1 (CHIA TAI TIANQING PHARMACEUTICAL GROUP, published 2024)

What was measured:
[1] = target: T1, human IL-36R overexpressed on 293T-hIL36R-NFκB cells (human, UniProt Q9HB29 20-575); assay: cell-based or functional assay
T1 sequence: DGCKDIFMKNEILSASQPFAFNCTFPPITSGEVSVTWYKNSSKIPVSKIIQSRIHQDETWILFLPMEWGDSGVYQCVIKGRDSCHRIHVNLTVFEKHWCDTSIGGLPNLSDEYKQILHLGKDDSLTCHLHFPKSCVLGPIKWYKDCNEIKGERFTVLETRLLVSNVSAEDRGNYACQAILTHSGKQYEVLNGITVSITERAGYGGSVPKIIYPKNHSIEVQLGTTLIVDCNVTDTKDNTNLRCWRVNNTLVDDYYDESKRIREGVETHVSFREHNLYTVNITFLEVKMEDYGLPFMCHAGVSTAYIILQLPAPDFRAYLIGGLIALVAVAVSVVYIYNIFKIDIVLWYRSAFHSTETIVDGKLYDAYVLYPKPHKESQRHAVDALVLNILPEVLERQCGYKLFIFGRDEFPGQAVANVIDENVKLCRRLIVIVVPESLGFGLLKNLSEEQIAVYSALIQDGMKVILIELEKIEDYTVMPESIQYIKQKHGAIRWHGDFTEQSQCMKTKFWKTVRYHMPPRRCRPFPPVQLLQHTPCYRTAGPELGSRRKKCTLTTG

[2] = target: T1, human IL-36R overexpressed on …; assay: cell-based or functional assay; remark: listed apart in the source
[3] = target: T1, human IL-36R overexpressed on …; assay: cell-based or functional assay; remark: listed apart in the source
[4] = target: T2, IL-36R naturally expressed on OVCAR8 cells and on normal human epidermal keratinocytes (NHK cells) (human, UniProt Q9HB29 20-575); assay: cell-based or functional assay
T2 sequence (looked up): T1 sequence

[5] = target: T2, IL-36R naturally expressed on OVCAR8 …; assay: cell-based or functional assay; remark: listed apart in the source
[6] = target: T2, IL-36R naturally expressed on OVCAR8 …; assay: cell-based or functional assay; remark: listed apart in the source
[7] = target: T3, Human IL-1Rrp2/IL-1R6 protein, His Tag (ACROBiosystems, IL2-H52H6) (human, UniProt Q9HB29 20-335); assay: BLI (ForteBio Octet), antibody on ProA sensor, 1:1 model
T3 construct: Bought protein; the soluble protein is likely only the extracellular part; also called hIL-36R; human IL36R antigen; not shown: His tag
T3 sequence: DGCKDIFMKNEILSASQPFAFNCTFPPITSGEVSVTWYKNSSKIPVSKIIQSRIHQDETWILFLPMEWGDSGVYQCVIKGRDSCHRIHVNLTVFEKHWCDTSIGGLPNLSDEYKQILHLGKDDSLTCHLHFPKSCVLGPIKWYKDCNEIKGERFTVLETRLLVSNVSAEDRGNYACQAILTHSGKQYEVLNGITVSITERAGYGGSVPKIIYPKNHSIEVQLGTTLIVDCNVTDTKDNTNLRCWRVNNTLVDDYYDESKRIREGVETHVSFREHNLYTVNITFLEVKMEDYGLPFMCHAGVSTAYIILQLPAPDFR
Protocol: The affinity of anti-IL-36R antibodies to CynoIL36R-ECD mFc and human IL-1Rrp2/IL-IR6 protein, His Tag (ACROBiosystems, IL2-H52H6) was measured by a ForteBio molecular interaction instrument. […] And then the biosensor was used to bind CynoIL36R-ECD mFc or human IL-1Rrp2/IL-1R6 protein, His Tag which was diluted by a gradient (the initial concentration was 200 nM, 2-fold gradient dilution), the response signals were detected in real time using a Fortebio molecular interaction instrument (SARTORIUS, octet red 96e), and association and dissociation curves were obtained. After the completion of dissociation in each cycle, the biosensor was regenerated for the next capture; the procedure was repeated until the affinity of the different anti-IL-36R antibodies for IL-36R was determined. The resulting data were analyzed by Fortebio Data Analysis 11.0 software in a 1:1 (Langmuir) binding model to determine kₐ (kₒₙ) and kd (koff) values, and the dissociation constant KD was calculated by KD=kd/kₐ. The detection method essentially followed the manufacturer's recommendations, and more information could be found at www.fortebio.com.

[8] = target: T1, human IL-36R overexpressed on …; assay: FACS on 293T-hIL36R-NFκB cells, ratio of MFI to background MFI
Protocol: After the cells was washed with PBS, the cells were resuspended with 100 μL of PBS and then the fluorescence signal was detected using a flow cytometer (BD, Accuri C6). […] The ratio was the ratio of mean fluorescence intensity (MFI) of the experimental group/the background MFI, and the resulting data were analyzed using GraphPad Prism.

B1: chimeric 74B4D6 antibody (antibody, human IgG4 S228P, kappa, V domains shown)
VH: EVQLQQPGAELGKPGASVKMACKASGYTFTNYWIHWVKQRPGQGLEWIGTIDPSENYTNYNQKFKGKATLTVDTSSSTAYMQLSSLTSEDKAVYFCTGSSFSYWGQGTLVTVSA
VL: QNVLTQSPAIMSVSPGEKVTMTCSASSSVSFIHWFQQKPGTSPKLWIYTTSNLASGVPARFSGSGSGTSYSLTISRMEAEDAATYYCQQRSSYPLTFGAGTKLELKR
notes: Mouse variable regions on human IgG4 / kappa; also called xi74B4D6
With B1 the “IC50; NFκB-luciferase reporter in 293T-hIL36R-NFκB cells stimulated with hIL36α, inhibition rate %” value [1] was 12.9 nM, the “IC50; NFκB-luciferase reporter in 293T-hIL36R-NFκB cells stimulated with hIL36β, inhibition rate %” value [2] was 21.5 nM and the “IC50; NFκB-luciferase reporter in 293T-hIL36R-NFκB cells stimulated with hIL36γ, inhibition rate %” value [3] was 25.4 nM. The “IC50; IL-8 production of OVCAR8 cells stimulated with hIL36α, inhibition rate %” value [4] was 0.73 nM, the “IC50; IL-8 production of OVCAR8 cells stimulated with hIL36β, inhibition rate %” value [5] was 0.972 nM and the “IC50; IL-8 production of OVCAR8 cells stimulated with hIL36γ, inhibition rate %” value [6] was 1.05 nM. For the same binder, the Kd [7] was 4.72 nM, the koff [7] was 0.000332 s⁻¹ and the kon [7] was 70400 M⁻¹ s⁻¹. The EC50 [8] was 15.5 nM.
